In this assay the target is T1, human calcitonin receptor (human, UniProt P30988 25-474).
T1 construct: whole, on cells; Used as cell membranes prepared from the transfected BHK cells (Assay VII), not as intact cells; also called hCTR; hCT
T1 sequence (looked up): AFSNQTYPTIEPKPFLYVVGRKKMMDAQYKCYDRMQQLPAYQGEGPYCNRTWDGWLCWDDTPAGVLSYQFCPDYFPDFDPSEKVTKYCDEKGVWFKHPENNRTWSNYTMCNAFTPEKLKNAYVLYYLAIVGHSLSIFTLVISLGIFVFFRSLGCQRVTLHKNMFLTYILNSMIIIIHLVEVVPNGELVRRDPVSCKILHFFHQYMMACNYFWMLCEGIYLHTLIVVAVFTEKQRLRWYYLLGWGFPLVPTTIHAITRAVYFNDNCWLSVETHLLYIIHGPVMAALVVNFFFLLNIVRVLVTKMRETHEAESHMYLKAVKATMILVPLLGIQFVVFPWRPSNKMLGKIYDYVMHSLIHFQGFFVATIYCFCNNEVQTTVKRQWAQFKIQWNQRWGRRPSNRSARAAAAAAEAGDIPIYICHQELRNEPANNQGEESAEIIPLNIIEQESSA
The experiment in a line: SPA competition against 125I-calcitonin, membranes with human calcitonin receptor (Assay VII). As to the method: Membranes were prepared in the following way; the cells were rinsed with PBS and incubated with Versene for approximately 5 min before harvesting. The cells were flushed with PBS and the cell-suspension was centrifuged for 5 min at 1000 rpm. Cells were homogenized (Ultrathurrax) in a buffer containing 20 mM Na-HEPES and 10 mM EDTA (pH 7.4) and centrifuged at 20.000 rpm for 15 min. The resulting pellet was resuspended, homogenized and centrifuged (20.000 rpm, 15 min) in a buffer containing 20 mM Na-HEPES and 0.1 mM EDTA (pH 7.4, buffer 2). The resulting pellet was resuspended in buffer 2 and protein concentration was measured (BCA protein Assay, Pierce). The homogenate was kept cold during the whole procedure. The membranes were kept at −80° C. until use. Assay was performed in a 384 well Optiplate (PerkinElmer) in a total volume of 40 ul. Membranes were mixed with SPA beads. Final concentration of membranes 35 ng/μL final and Final concentration of SPA beads was 0.05 mg/well. Test-compounds were dissolved in DMSO and further diluted in assay buffer (50 mM Hepes, pH 7.4, 1 mM CaCl2, 5 mM MgCl₂, 0.1% OA and 0.02% Tween20). […] The final mixture was incubated for 120 min with shaking at 400 rpm at 25° C. prior to centrifugation (1500 rpm, 10 min). Samples were analyzed on TopCounter™ (Packard). The […] was calculated using (one site binding competition analysis) GraphPad Prism5 as a measure of receptor affinity.

Numbered stars: 1 amine (or outer) side, 2 acyl side, 3 side chain; on linkers, the order of the positions; unused ones are H or OH. Bridge positions count the residues as written; N and C are the ends. Side chains are listed from the residue outwards. Ends that are not written are not given here. * marks the point of attachment. C20 diacid = O=C(O)CCCCCCCCCCCCCCCCCCC(=O)*; γGlu = O=C(O)[C@H](CCC(=O)[*:2])N[*:1]; AEEA = NCCOCCOCC(=O)O

B1: N^α1-[(4S)-4-carboxy-4-(19-carboxynonadecanoylamino)butanoyl]-[Glu14,Arg17,Pro21,Pro27,Arg35]-h-amylin (peptide)
peptide: {C20 diacid-γGlu}-KCNTATCATQRLAEFLRHSSPNFGAIPSSTNVGSRTY-NH2
modifications: disulfide 2-7
SMILES: CC[C@H](C)[C@H](NC(=O)[C@H](C)NC(=O)CNC(=O)[C@H](Cc1ccccc1)NC(=O)[C@H](CC(N)=O)NC(=O)[C@@H]1CCCN1C(=O)[C@H](CO)NC(=O)[C@H](CO)NC(=O)[C@H](Cc1c[nH]cn1)NC(=O)[C@H](CCCNC(=N)N)NC(=O)[C@H](CC(C)C)NC(=O)[C@H](Cc1ccccc1)NC(=O)[C@H](CCC(=O)O)NC(=O)[C@H](C)NC(=O)[C@H](CC(C)C)NC(=O)[C@H](CCCNC(=N)N)NC(=O)[C@H](CCC(N)=O)NC(=O)[C@@H](NC(=O)[C@H](C)NC(=O)[C@@H]1CSSC[C@H](NC(=O)[C@H](CCCCN)NC(=O)CC[C@H](NC(=O)CCCCCCCCCCCCCCCCCCC(=O)O)C(=O)O)C(=O)N[C@@H](CC(N)=O)C(=O)N[C@@H]([C@@H](C)O)C(=O)N[C@@H](C)C(=O)N[C@@H]([C@@H](C)O)C(=O)N1)[C@@H](C)O)C(=O)N1CCC[C@H]1C(=O)N[C@@H](CO)C(=O)N[C@@H](CO)C(=O)N[C@H](C(=O)N[C@@H](CC(N)=O)C(=O)N[C@H](C(=O)NCC(=O)N[C@@H](CO)C(=O)N[C@@H](CCCNC(=N)N)C(=O)N[C@H](C(=O)N[C@@H](Cc1ccc(O)cc1)C(N)=O)[C@@H](C)O)C(C)C)[C@@H](C)O
notes: also called compound 16
The term IC50 denotes the concentration that gives 50% inhibition. For the molecule B1, the IC50 is 17.1 nM.

B2: N^α1-[(4S)-4-carboxy-4-(19-carboxynonadecanoylamino)butanoyl]-[His14,Arg17,Pro21,Pro27,Glu35]-h-amylin (peptide)
peptide: {C20 diacid-γGlu}-KCNTATCATQRLAHFLRHSSPNFGAIPSSTNVGSETY-NH2
modifications: disulfide 2-7
SMILES: CC[C@H](C)[C@H](NC(=O)[C@H](C)NC(=O)CNC(=O)[C@H](Cc1ccccc1)NC(=O)[C@H](CC(N)=O)NC(=O)[C@@H]1CCCN1C(=O)[C@H](CO)NC(=O)[C@H](CO)NC(=O)[C@H](Cc1c[nH]cn1)NC(=O)[C@H](CCCNC(=N)N)NC(=O)[C@H](CC(C)C)NC(=O)[C@H](Cc1ccccc1)NC(=O)[C@H](Cc1c[nH]cn1)NC(=O)[C@H](C)NC(=O)[C@H](CC(C)C)NC(=O)[C@H](CCCNC(=N)N)NC(=O)[C@H](CCC(N)=O)NC(=O)[C@@H](NC(=O)[C@H](C)NC(=O)[C@@H]1CSSC[C@H](NC(=O)[C@H](CCCCN)NC(=O)CC[C@H](NC(=O)CCCCCCCCCCCCCCCCCCC(=O)O)C(=O)O)C(=O)N[C@@H](CC(N)=O)C(=O)N[C@@H]([C@@H](C)O)C(=O)N[C@@H](C)C(=O)N[C@@H]([C@@H](C)O)C(=O)N1)[C@@H](C)O)C(=O)N1CCC[C@H]1C(=O)N[C@@H](CO)C(=O)N[C@@H](CO)C(=O)N[C@H](C(=O)N[C@@H](CC(N)=O)C(=O)N[C@H](C(=O)NCC(=O)N[C@@H](CO)C(=O)N[C@@H](CCC(=O)O)C(=O)N[C@H](C(=O)N[C@@H](Cc1ccc(O)cc1)C(N)=O)[C@@H](C)O)C(C)C)[C@@H](C)O
notes: also called compound 30
Regarding B2, the IC50 was 21.6 nM.

B3: N^ε1-[2-[2-[2-[[(4S)-4-carboxy-4-(19-carboxynonadecanoylamino)butanoyl]amino]ethoxy]ethoxy]acetyl]-[Arg17,Pro21,Pro27,Glu35]-h-amylin (peptide)
peptide: K([AEEA-γGlu-C20 diacid])CNTATCATQRLANFLRHSSPNFGAIPSSTNVGSETY-NH2
modifications: disulfide 2-7; N-terminus assumed
SMILES: CC[C@H](C)[C@H](NC(=O)[C@H](C)NC(=O)CNC(=O)[C@H](Cc1ccccc1)NC(=O)[C@H](CC(N)=O)NC(=O)[C@@H]1CCCN1C(=O)[C@H](CO)NC(=O)[C@H](CO)NC(=O)[C@H](Cc1c[nH]cn1)NC(=O)[C@H](CCCNC(=N)N)NC(=O)[C@H](CC(C)C)NC(=O)[C@H](Cc1ccccc1)NC(=O)[C@H](CC(N)=O)NC(=O)[C@H](C)NC(=O)[C@H](CC(C)C)NC(=O)[C@H](CCCNC(=N)N)NC(=O)[C@H](CCC(N)=O)NC(=O)[C@@H](NC(=O)[C@H](C)NC(=O)[C@@H]1CSSC[C@H](NC(=O)[C@@H](N)CCCCNC(=O)COCCOCCNC(=O)CC[C@H](NC(=O)CCCCCCCCCCCCCCCCCCC(=O)O)C(=O)O)C(=O)N[C@@H](CC(N)=O)C(=O)N[C@@H]([C@@H](C)O)C(=O)N[C@@H](C)C(=O)N[C@@H]([C@@H](C)O)C(=O)N1)[C@@H](C)O)C(=O)N1CCC[C@H]1C(=O)N[C@@H](CO)C(=O)N[C@@H](CO)C(=O)N[C@H](C(=O)N[C@@H](CC(N)=O)C(=O)N[C@H](C(=O)NCC(=O)N[C@@H](CO)C(=O)N[C@@H](CCC(=O)O)C(=O)N[C@H](C(=O)N[C@@H](Cc1ccc(O)cc1)C(N)=O)[C@@H](C)O)C(C)C)[C@@H](C)O
notes: also called compound 26
Regarding B3, the IC50 came out at 25.3 nM.

B4: N^α1-[(4S)-4-carboxy-4-(19-carboxynonadecanoylamino)butanoyl]-[Glu14,Arg17,Pro21,Pro27,Pro31]-h-amylin (peptide)
peptide: {C20 diacid-γGlu}-KCNTATCATQRLAEFLRHSSPNFGAIPSSTPVGSNTY-NH2
modifications: disulfide 2-7
SMILES: CC[C@H](C)[C@H](NC(=O)[C@H](C)NC(=O)CNC(=O)[C@H](Cc1ccccc1)NC(=O)[C@H](CC(N)=O)NC(=O)[C@@H]1CCCN1C(=O)[C@H](CO)NC(=O)[C@H](CO)NC(=O)[C@H](Cc1c[nH]cn1)NC(=O)[C@H](CCCNC(=N)N)NC(=O)[C@H](CC(C)C)NC(=O)[C@H](Cc1ccccc1)NC(=O)[C@H](CCC(=O)O)NC(=O)[C@H](C)NC(=O)[C@H](CC(C)C)NC(=O)[C@H](CCCNC(=N)N)NC(=O)[C@H](CCC(N)=O)NC(=O)[C@@H](NC(=O)[C@H](C)NC(=O)[C@@H]1CSSC[C@H](NC(=O)[C@H](CCCCN)NC(=O)CC[C@H](NC(=O)CCCCCCCCCCCCCCCCCCC(=O)O)C(=O)O)C(=O)N[C@@H](CC(N)=O)C(=O)N[C@@H]([C@@H](C)O)C(=O)N[C@@H](C)C(=O)N[C@@H]([C@@H](C)O)C(=O)N1)[C@@H](C)O)C(=O)N1CCC[C@H]1C(=O)N[C@@H](CO)C(=O)N[C@@H](CO)C(=O)N[C@H](C(=O)N1CCC[C@H]1C(=O)N[C@H](C(=O)NCC(=O)N[C@@H](CO)C(=O)N[C@@H](CC(N)=O)C(=O)N[C@H](C(=O)N[C@@H](Cc1ccc(O)cc1)C(N)=O)[C@@H](C)O)C(C)C)[C@@H](C)O
notes: also called compound 31
For the molecule B4, the IC50 was found to be 3.26 nM.

B5: N^ε1-[2-[2-[2-[[2-[2-[2-[[(4S)-4-carboxy-4-(19-carboxynonadecanoylamino)butanoyl]amino]ethoxy]ethoxy]acetyl]amino]ethoxy]ethoxy]acetyl]-[Arg17,Pro21,Pro27,Glu35 … (peptide)
peptide: K([AEEA-AEEA-γGlu-C20 diacid])CNTATCATQRLANFLRHSSPNFGAIPSSTNVGSETY-NH2
modifications: disulfide 2-7; N-terminus assumed
SMILES: CC[C@H](C)[C@H](NC(=O)[C@H](C)NC(=O)CNC(=O)[C@H](Cc1ccccc1)NC(=O)[C@H](CC(N)=O)NC(=O)[C@@H]1CCCN1C(=O)[C@H](CO)NC(=O)[C@H](CO)NC(=O)[C@H](Cc1c[nH]cn1)NC(=O)[C@H](CCCNC(=N)N)NC(=O)[C@H](CC(C)C)NC(=O)[C@H](Cc1ccccc1)NC(=O)[C@H](CC(N)=O)NC(=O)[C@H](C)NC(=O)[C@H](CC(C)C)NC(=O)[C@H](CCCNC(=N)N)NC(=O)[C@H](CCC(N)=O)NC(=O)[C@@H](NC(=O)[C@H](C)NC(=O)[C@@H]1CSSC[C@H](NC(=O)[C@@H](N)CCCCNC(=O)COCCOCCNC(=O)COCCOCCNC(=O)CC[C@H](NC(=O)CCCCCCCCCCCCCCCCCCC(=O)O)C(=O)O)C(=O)N[C@@H](CC(N)=O)C(=O)N[C@@H]([C@@H](C)O)C(=O)N[C@@H](C)C(=O)N[C@@H]([C@@H](C)O)C(=O)N1)[C@@H](C)O)C(=O)N1CCC[C@H]1C(=O)N[C@@H](CO)C(=O)N[C@@H](CO)C(=O)N[C@H](C(=O)N[C@@H](CC(N)=O)C(=O)N[C@H](C(=O)NCC(=O)N[C@@H](CO)C(=O)N[C@@H](CCC(=O)O)C(=O)N[C@H](C(=O)N[C@@H](Cc1ccc(O)cc1)C(N)=O)[C@@H](C)O)C(C)C)[C@@H](C)O
notes: also called compound 25
As to B5, the IC50 was determined as 43.4 nM.

For the origin of these results see patent US20140087995A1 (published 2014).
